This note sets out measurements from the RNAGym collection of RNA variant scans (doi:10.1073/pnas.2313332121).

The labels stand for the following.
B1: TPR t1 (parent)
chain: GACCAAUCUGCCCUCAGAGCUCGAGAACAUCUUCGGAUGCAGAGGAGGCAGGCUUCGGUGGCGCGAUAGCGCCAACGUCCUCAACCUCCAAUGCAUCCCACCACAUGAUGAUGCCUGAAGAGCCUUGGUUUUUUG

Variants of B1 are the subject of the data set. Nature of the data set: polymerase ribozyme fitness, log enrichment relative to wild type (log ratio); higher = more active; in vitro selection for triplet polymerase activity. The procedure, abridged: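 Input and output libraries were sequenced on Illumina after a single in vitro selection round, run in triplicate on PCR-built, transcribed mutant libraries of each subunit of a heterodimeric triplet polymerase ribozyme. Selection annealed libraries to a biotinylated primer, the partner subunit and triplets, incubated them frozen at −7 °C, then gel-excised extended constructs for streptavidin-bead capture and RT-PCR. Genotypes with ≥10 input reads and ≥1 read per output were kept. Fitness is the logarithm, taken in base 2, of genotype enrichment divided by wild-type enrichment, using inverse-variance-weighted replicate averages.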
Take C13U G128A: the “polymerase ribozyme fitness (log ratio)” value is -1.67.

In the case of C13U C20U G61A U92C, the “polymerase ribozyme fitness (log ratio)” value is -1.11.

As to C13U U32G G35A G51A C114A G122C, the “polymerase ribozyme fitness (log ratio)” value is -6.85.

Take C13G G57C U109A A111U: the “polymerase ribozyme fitness (log ratio)” value is -4.71.

Take C13U A24G G69U C104U A111U: the “polymerase ribozyme fitness (log ratio)” value was -1.91.

On to C13U C20U A74U U92A, for which the “polymerase ribozyme fitness (log ratio)” value is -3.91.

On to C13U C99U, for which the “polymerase ribozyme fitness (log ratio)” value was -2.12.

C13U A16C U106G: the “polymerase ribozyme fitness (log ratio)” value is -2.43.

Consider C13U C80U, for which the “polymerase ribozyme fitness (log ratio)” value is -0.427.

Turning to C13U C72G U81C A95C A119U, the “polymerase ribozyme fitness (log ratio)” value was -1.87.

On to C13U C22G A41U C72U U78G U81C G122A, for which the “polymerase ribozyme fitness (log ratio)” value was -4.05.

Turning to C13U C70G G122A, the “polymerase ribozyme fitness (log ratio)” value is -2.19.

In the case of C13U A26G G60C G93C, the “polymerase ribozyme fitness (log ratio)” value was -3.34.

C13U C15U A27C A29G C73U: the “polymerase ribozyme fitness (log ratio)” value is -4.69.

In the case of C13U A16U G45U G60U A95U C97U, the “polymerase ribozyme fitness (log ratio)” value is -2.68.

C13U G47U C88U A90G U106G: the “polymerase ribozyme fitness (log ratio)” value was -2.13.

Take C13G U78C: the “polymerase ribozyme fitness (log ratio)” value is -0.825.

As to C13G G52C G71A, the “polymerase ribozyme fitness (log ratio)” value was -3.97.

As to C13U C124A G128A, the “polymerase ribozyme fitness (log ratio)” value came to 0.853.

As to C13U A43G G60A U92G U116C, the “polymerase ribozyme fitness (log ratio)” value is -3.1.

Regarding C13U A29U A46U C56A C115U, the “polymerase ribozyme fitness (log ratio)” value is -2.01.

Take C13U C53U C114A G120C: the “polymerase ribozyme fitness (log ratio)” value was -1.1.

With C13U A26U C40U, the “polymerase ribozyme fitness (log ratio)” value was -2.81.

For the variant C13U C15A A91C, the “polymerase ribozyme fitness (log ratio)” value was -4.3.

Consider C13U A16C A84U U129A, for which the “polymerase ribozyme fitness (log ratio)” value is -3.48.

C13U C15U: the “polymerase ribozyme fitness (log ratio)” value is -2.01.

As to C13U C40U G69U C88G, the “polymerase ribozyme fitness (log ratio)” value was -2.27.

Consider C13U G19U G42U G60A G110U, for which the “polymerase ribozyme fitness (log ratio)” value was -5.83.

In the case of C13U C34U C88U, the “polymerase ribozyme fitness (log ratio)” value is -4.18.

On to C13U U14A C15G G63A U81G U109A, for which the “polymerase ribozyme fitness (log ratio)” value is -7.58.

For C13U U21C A27C U87G C114G, the “polymerase ribozyme fitness (log ratio)” value was -6.59.

For C13G G61A C70G C123U, the “polymerase ribozyme fitness (log ratio)” value was -5.1.

For U14A A46C U81C C82U, the “polymerase ribozyme fitness (log ratio)” value was -3.9.

Consider C13U C49U C79A C97G U109A, for which the “polymerase ribozyme fitness (log ratio)” value is -7.98.

On to C13U G57C U78C, for which the “polymerase ribozyme fitness (log ratio)” value was determined as 0.238.

Take C13U U21C: the “polymerase ribozyme fitness (log ratio)” value is 0.405.

Consider C13U U21G, for which the “polymerase ribozyme fitness (log ratio)” value worked out at 0.0383.

For C13U U112A U126G, the “polymerase ribozyme fitness (log ratio)” value was determined as 0.677.

Regarding C13U U21C G36C A50G C56A, the “polymerase ribozyme fitness (log ratio)” value was -1.18.

As for C13U G48U G63C G110C, the “polymerase ribozyme fitness (log ratio)” value is -4.51.

On to C13U G42C, for which the “polymerase ribozyme fitness (log ratio)” value was -0.781.

For the variant C13U C79A C104A, the “polymerase ribozyme fitness (log ratio)” value was -2.96.

Regarding C13U G51U G60U C97U A119G G127U, the “polymerase ribozyme fitness (log ratio)” value was -2.62.

Regarding C13U U112A, the “polymerase ribozyme fitness (log ratio)” value was 1.43.

Take C13U U112G: the “polymerase ribozyme fitness (log ratio)” value is 1.14.

With C13U A18U A43C U59C G71U A105U, the “polymerase ribozyme fitness (log ratio)” value is -4.76.

Turning to C13G G47C A95C, the “polymerase ribozyme fitness (log ratio)” value was -4.32.

Turning to C13U C76U C86G, the “polymerase ribozyme fitness (log ratio)” value was -2.13.

As for C13G G61A C82A, the “polymerase ribozyme fitness (log ratio)” value was -2.32.

In the case of C13U G61C C101A, the “polymerase ribozyme fitness (log ratio)” value is -2.82.

For the variant C13U A66U U116C, the “polymerase ribozyme fitness (log ratio)” value is -0.492.

Consider C13U C15U U32G C124A, for which the “polymerase ribozyme fitness (log ratio)” value is -6.8.

C13U C79A A90C: the “polymerase ribozyme fitness (log ratio)” value was -2.88.

Turning to C13G U112A, the “polymerase ribozyme fitness (log ratio)” value turned out to be 0.148.

As to C13U C56U A121C U130G, the “polymerase ribozyme fitness (log ratio)” value stood at 1.59.

As to U14A A74G, the “polymerase ribozyme fitness (log ratio)” value was -2.63.

Take C13U C70A C73U: the “polymerase ribozyme fitness (log ratio)” value is -1.58.

As for U14A A37G G120A, the “polymerase ribozyme fitness (log ratio)” value is -0.881.

For C13U A66C U106A, the “polymerase ribozyme fitness (log ratio)” value was -0.839.

Consider C13G U32C A37G C49U, for which the “polymerase ribozyme fitness (log ratio)” value was -1.77.

As to C13U C56U C97G G127A, the “polymerase ribozyme fitness (log ratio)” value was -4.74.

On to C13U G71U C79G U81A, for which the “polymerase ribozyme fitness (log ratio)” value is -3.02.

For C13U C56A, the “polymerase ribozyme fitness (log ratio)” value is -0.36.

Turning to C13G G51U A84C G127U, the “polymerase ribozyme fitness (log ratio)” value is -6.59.

C13U G120C C124U: the “polymerase ribozyme fitness (log ratio)” value is 1.91.

Regarding C13U G44C A74C A111C, the “polymerase ribozyme fitness (log ratio)” value is -0.273.

For the variant C13U U33A U125A, the “polymerase ribozyme fitness (log ratio)” value is -4.68.

Take C13U C22G G44A C56A: the “polymerase ribozyme fitness (log ratio)” value was -5.28.

Take C13U A16C: the “polymerase ribozyme fitness (log ratio)” value is -0.368.

For the variant C13G G48A G63A A83C, the “polymerase ribozyme fitness (log ratio)” value was -3.74.

As for C13G G71C U112C G117C U125C, the “polymerase ribozyme fitness (log ratio)” value was -5.67.

As for C13U C56A C62U C97A C102U, the “polymerase ribozyme fitness (log ratio)” value was -5.15.

As for C13U A29G G52U A74C, the “polymerase ribozyme fitness (log ratio)” value is -1.84.

For C13U A84U, the “polymerase ribozyme fitness (log ratio)” value was -0.00977.

C13G G47U C73U C114A: the “polymerase ribozyme fitness (log ratio)” value is -4.1.

For the variant C13U G19A A37G, the “polymerase ribozyme fitness (log ratio)” value was -2.93.

For the variant C13U A29U, the “polymerase ribozyme fitness (log ratio)” value was -1.8.

For the variant C13U C49A G71C G127C, the “polymerase ribozyme fitness (log ratio)” value is -1.9.

Turning to C13U C40U C124G, the “polymerase ribozyme fitness (log ratio)” value amounted to 1.61.

As to C13U U92G, the “polymerase ribozyme fitness (log ratio)” value is -2.48.

Take C13U C22U C82A C94A A121U U130A: the “polymerase ribozyme fitness (log ratio)” value was -3.54.

Take C13G G47A C88U C102U U116G C123A: the “polymerase ribozyme fitness (log ratio)” value is -4.62.

Regarding C13U A27U, the “polymerase ribozyme fitness (log ratio)” value was -2.33.

For the variant C13U A27C, the “polymerase ribozyme fitness (log ratio)” value is -2.05.
